Assay results published in patent publication US20110300156A1 (Genmab, published 2011).
Numbering of substitutions follows the chain as printed.

How the values were obtained:
[1] = molecular target: T1, TFECDHis (extracellular domain of tissue factor, amino acid 1-251, with C-terminal His tag) (human, UniProt P13726 33-251); assay: ELISA, coated TFECDHis, mean of 3
T1 construct: range 1-251; The stated range 1-251 starts at residue 1 of NP-001984; also called extracellular domain of TF
Protocol: (§1) The specificity of the obtained anti-TF HuMabs was evaluated by ELISA. ELISA plates (Microlon; Greiner Bio-One) were coated overnight at +4° C. with 0.5 μg/mL of TFECDHis in PBS, pH 7.4. Coated ELISA plates were emptied and blocked for one hour at room temperature with 2% (v/v) chicken serum (Gibco, Paisley, Scotland) in PBS and washed with PBS containing 0.05% Tween 20 (PBST). Subsequently, HuMabs, serially diluted in PBSTC (PBS supplemented with 2% (v/v) chicken serum and 0.05% (v/v) Tween-20), were incubated for 1 hr at RT under shaking conditions (300 rpm). Bound HuMabs were detected using HRP-conjugated goat-anti-human IgG antibodies (Jackson ImmunoResearch) diluted 1:5,000 in PBSTC, which were incubated for 1 hr at RT under shaking conditions (300 rpm). […] HuMab-KLH (a human monoclonal antibody against KLH (keyhole limpet haemocyanin)), was used as a negative control. Mouse anti-human TF (ERL) was used as positive control (HRP labeled anti-mouse IgG as conjugate). Binding curves were analyzed using non-linear regression (sigmoidal dose-response with variable slope) using GraphPad Prism V4.03 software.

[2] = molecular target: T2, murine tissue factor (TF) on transfected HEK293F cells (murine, UniProt P20352 29-294); assay: FACS on transfected HEK293F cells, 30 µg/mL antibody [panel A]
T2 construct: whole, on cells; also called murine TF; TFmm
T2 sequence (looked up): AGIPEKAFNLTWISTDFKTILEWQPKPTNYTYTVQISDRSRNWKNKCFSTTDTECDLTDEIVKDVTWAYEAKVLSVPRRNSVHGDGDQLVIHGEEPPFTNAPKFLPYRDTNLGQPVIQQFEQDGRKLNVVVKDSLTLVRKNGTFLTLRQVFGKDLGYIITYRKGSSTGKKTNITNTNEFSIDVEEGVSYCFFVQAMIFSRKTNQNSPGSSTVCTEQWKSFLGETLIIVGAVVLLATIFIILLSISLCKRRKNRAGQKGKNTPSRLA

[3] = molecular target: T3, human tissue factor (TF), membrane-bound on cells (human, UniProt P13726 33-295); assay: cell-based or functional assay
[4] = molecular target: T3, human tissue factor (TF), …; assay: FACS, Bx-PC3 cells, 30 µg/mL
Protocol: (§2) Cells were resuspended in PBS (2×10⁶ cells/ml), put in 96-well V-bottom plates (50 μl/well). 50 μl of serially diluted HuMab in FACS buffer (PBS supplemented with 0.1% BSA and 0.02% Na-azide) was added to the cells and incubated for 30 minutes on ice. After washing three times with FACS buffer, 50 μl of phycoerythrin (PE)-conjugated goat anti-human IgGFc (Jackson ImmunoResearch), diluted 1:100 in FACS buffer, was added. After 30 minutes on ice (in the dark), cells were washed three times, and specific binding of the HuMabs was detected by flow cytometry on a FACSCalibur (BD Biosciences). HuMab-KLH was used as a negative control. Mouse anti-TF followed by PE-conjugated anti-mouse IgGFc was used as positive control. Binding curves were analyzed using non-linear regression (sigmoidal dose-response with variable slope) using GraphPad Prism V4.03 software (GraphPad Software, San Diego, Calif., USA).

[5] = molecular target: T1, TFECDHis (extracellular domain of …); assay: competition ELISA, inhibition of FVIIa (100 nM) binding to coated TFECDHis
Protocol: ELISA plates were coated overnight with TFECDHis (0.5 μg/mL, 100 μL per well). Plates were emptied, blocked with PBS containing 2% (v/v) chicken serum (1 hour, RT), and emptied again. […] Plates were washed and incubated with swine-anti-rabbit IgG-HRP antibody (1:2,500; DAKO). After washing, the immune complexes were visualized using ABTS as a substrate.

[6] = molecular target: T3, human tissue factor (TF), …; assay: FACS, MDA-MB-231 cells
Protocol: as §2

[7] = molecular target: T3, human tissue factor (TF), …; assay: FACS, A431 cells
Protocol: as §2

[8] = molecular target: T4, TF (Innovin) (UniProt P13726 33-295, limits assumed); assay: cell-based or functional assay
[9] = molecular target: T3, human tissue factor (TF), …; assay: FACS, TF transfected CHO cells (S1015-TF)
Protocol: as §2

[10] = molecular target: T3, human tissue factor (TF), …; assay: FACS, A431 cells, 30 µg/mL
Protocol: as §2

[11] = molecular target: T3, human tissue factor (TF), …; assay: cell-based or functional assay; remark: listed apart in the source
[12] = molecular target: T3, human tissue factor (TF), …; assay: FACS, Bx-PC3 cells
Protocol: as §2

[13] = molecular target: T3, human tissue factor (TF), …; assay: FACS, MDA-MB-231 cells, 30 µg/mL
Protocol: as §2

[14] = molecular target: T4, TF (Innovin); assay: cell-based or functional assay; remark: listed apart in the source
[15] = molecular target: T3, human tissue factor (TF), …; assay: FACS, TF transfected CHO cells (S1015-TF), 7.5 µg/mL
Protocol: as §2

[16] = molecular target: T3, human tissue factor (TF), …; assay: cell-based or functional assay; remark: listed apart in the source
[17] = molecular target: T1, TFECDHis (extracellular domain of …); assay: SPR BIAcore 3000, HuMab immobilized, TFECDHis analyte
Protocol: Antibody binding to TF was analyzed by surface plasmon resonance in a BIAcore 3000 (GE Healthcare). TFECDHis was used for the analysis. HuMab antibodies (500 resonance units) were immobilized on the CM-5 sensor chip according to the procedure recommended by the manufacturer. Briefly, after surface activation by EDC and NHS HuMab antibody was injected over the activated CM-5 surface in 10 mM sodium-acetate, pH ranging from 4.0 to 5.5 at 5 μl/min. followed by 1 M Ethanolamine for deactivation. Concentration series of TFECDHis in HBS-EP buffer were injected over the immobilized antibodies at a flow rate of 30 μl/min for 180 sec. Regeneration of the HuMab surface was performed by injection of 10 mM Glycine-HCl pH 2.0 or 10 mM sodium acetate pH 3.0. Kinetic analysis was performed using double reference subtraction and model 1:1 (langmuir) binding analysis.

[18] = molecular target: T3, human tissue factor (TF), …; assay: FACS, Fab fragment on BxPC3 cells
Protocol: as §2
(§3) Binding of Fab fragments of anti-TF HuMabs to TF was measured by ELISA (coated extracellular domain of TF) and by FACS (TF on BxPC3 cells). ELISA was performed essentially as described supra. Bound Fab fragments were detected using HRP-conjugated donkey-anti human H+L. FACS analysis was performed essentially as described supra. FITC-conjugated goat anti-human IgG (H+L) (Jackson) was used to detect bound lead candidates. Fluorescence was measured on a FACSCantoII. Binding curves were analyzed as described supra, using GraphPad Prism 5 software.

[19] = molecular target: T1, TFECDHis (extracellular domain of …); assay: ELISA, Fab fragment on coated extracellular domain of TF
Protocol: as §1, §3

[20] = molecular target: T2, murine tissue factor (TF) on …; assay: FACS on transfected HEK293F cells, 30 µg/mL antibody [Figure 18; no figure label on the sheet]
Protocol: as §2
To determine domains important for binding of anti-TF HuMabs to human TF, DNA shuffling was performed between human and murine TF. Shuffle constructs were prepared from DNA encoding human TF, by replacing human domains with murine domains and from DNA encoding murine TF by replacing murine domains with human domains.

B1: anti-TF HuMab 003 (antibody, V domains shown)
VH: QVQLVQSGAEVKKPGSSVKVSCKAPRGTFSYYTISWVRQAPGQGLEWMGRIIPILGVANYAQKFQGRVTITADKSTSTAYMELSSLRSEDTAVYYCAREGDRRYFDYWGQGTLVTVSS
VL: AIQLTQSPSSLSASVGDRVTITCRASQDISSALAWYQQKPGKAPKLLIYDASILESGVPSRFSGSGSGTDFTLTISSLQPEDFATYYCQQFNSYPLTFGGGTKVEIK
notes: Human monoclonal antibody from HuMab mice; also called HuMab-TF-003
In the case of B1, the EC50 [1] is reported as 0.46 nM, the binding result [2] is reported as “binds” and the “IC50, inhibition of FVIIa induced IL-8 release (MDA-MB-231)” value [3] is reported as 23.7 nM. The “max inhibition of FVIIa induced IL-8 release (MDA-MB-231)” value [3] was 76.2%, the “Max MFI” value [4] was 1110 and the IC50 [5] was 1.9 nM. For the same binder, the max inhibition [5] was 89%, the EC50 [6] was 3.2 nM and the EC50 [7] was 6.94 nM. For the same binder, the “IC50, inhibition of blood coagulation (TF induced clotting time)” value [8] was 7.3 nM, the EC50 [9] was 2.06 nM and the “Max MFI” value [10] was 2530. The “% max inhibition of FVIIa induced ERK phosphorylation (A431)” value [11] was 63%, the “IC50, inhibition of FVIIa induced ERK phosphorylation (A431)” value [11] was 7.99 nM and the EC50 [12] was 4.98 nM. For the same binder, the “Max MFI” value [13] was 1800, the “% max inhibition of FXa generation” value [14] was 21% and the “IC50, inhibition of FXa generation” value [14] was 0.07 nM. The “Max MFI” value [15] was 4250, the “EC50 of ADCC, Bx-PC3 cells” value [16] was 0.17 nM and the “EC50 of ADCC, MDA-MB-231 cells” value [16] was 0.29 nM. It also gave a Kd [17] of 4.51 nM.

B2: HuMab-TF-044 Fab fragment (Fab, V domains shown)
VH: QVQLVESGGGVVQPGRSLRLSCAASGFTFSDYAMHWVRQAPGKGLEWVAVIPYDGDNKYYADSVKGRFTISRDNSKNTLYLQMNSLRAEDTAVYYCAREDWGLEVDYWGQGALVTVSS
VL: B1 VL with D28G, S30N, I53S
notes: Fab fragment of the HuMab; VH and VL as for the parent antibody
For B2, the EC50 [18] was 8.04 mg/L and the EC50 [19] was 0.59 mg/L.

B3: HuMab-TF-109 Fab fragment (Fab, V domains shown)
VH: QVQLVESGGGVVQPGRSLRLSCPASGFTFSIYAMHWVRQAPGKGLEWVAVVSNDGYNKYYADSVKGRFTISRDNSKDTLYLQMNSLRAEDTAVYYCARDGQLGRGYFDYWGQGTLVTVSS
VL: EIVLTQSPATLSLSPGERAILSCRASQSVSSYLAWYQQKPGQAPRLLIYDASNRATGIPARFSGSGSGTDFTLTISSLEPEDFAVYYCQQRSNWPLTFGGGTKVEIK
notes: as for B2
Binder B3 has an EC50 [18] of 0.143 mg/L and an EC50 [19] of 0.02 mg/L.

B4: HuMab-TF-111 Fab fragment (Fab, V domains shown)
VH: QVQLVESGGGVVQPGRSLRLSCAGSGFTFNRYAMYWVRQAPGKGLDWVAVISNDGINKYYADSVKGRFTISRDNSKNTLYLQMNSLRAEDTAVYYCARDHTMVRGAFDYWGQGTLVTVSS
VL: B3 VL with I20T
notes: as for B2
With B4 the EC50 [19] was 3.14 mg/L.

B5: HuMab-TF-011 Fab fragment (Fab, V domains shown)
VH: EVQLLESGGGLVQPGGSLRLSCAASGFTFSNYAMSWVRQAPGKGLEWVSSISGSGDYTYYTDSVKGRFTISRDNSKNTLYLQMNSLRAEDTAVYYCARSPWGYYLDSWGQGTLVTVSS
VL: DIQMTQSPPSLSASAGDRVTITCRASQGISSRLAWYQQKPEKAPKSLIYAASSLQSGVPSRFSGSGSGTDFTLTISSLQPEDFATYYCQQYNSYPYTFGQGTKLEIK
notes: Fab fragment of the HuMab; VH and VL as for the parent antibody; also called -011 Fab fragments
With B5 the EC50 [18] was 0.132 mg/L and the EC50 [19] was 0.04 mg/L.

B6: HuMab-TF-098 Fab fragment (Fab, V domains shown)
VH: QVQLVQSGAEVRKPGSSVKVSCKASGGSFNNYPIFWVRQAPGQGFEWMGRIIPILGITAYAQKFQGRVTITADKSTSTAYMELNSLRSEDTAVYYCAGGDDLDAFDIWGQGTMVSVSS
VL: B5 VL with P9S, A15V, R32W
notes: as for B2
B6 gave an EC50 [19] of 1.98 mg/L.

B7: HuMab-TF-013 Fab fragment (Fab, V domains shown)
VH: EVQLVQSGAEVKKPGESLKISCKGSGYSFTSYWIGWVRQMPGKGLEWMGIIYPGDSDTRYSPSFQGQVTISADKSISTAYLQWSSLKASDTAMYYCARIHRGAGYSSSWPGAFDIWGQGTMVTVSS
VL: B5 VL with P9S, A15V, S31R, R32W, N92D, Y94D, Y96I, K103R
notes: as for B2
Binder B7 has an EC50 [18] of 0.301 mg/L and an EC50 [19] of 0.03 mg/L.

B8: anti-TF HuMab 017-D12 (antibody, V domains shown)
VH: EVQLLESGGGLVQPGGSLRLSCAASGFTFSSYAMSWVRQAPGKGLEWVSAISGSGDSTNYADSVKGRFTISRDNSKNTLYLQMNSLRAEDTAVYYCAKDGYFLLWYFDLWGRGTLVTVSS
VL: not shown
notes: Human monoclonal antibody from HuMab mice
B8: no binding (tested: 30 µg/mL) [20].
